Source: patent publication US20210071139A1

Tests used:
TOX [1] = biological target: TOX (UniProt Q66JW3); experiment: TOX co-IP from EL4 nuclear extract, LC-MS/MS, MiST
TOX [2] = biological target: TOX (UniProt Q66JW3); experiment: anti-TOX IP from EL4 nuclear extract, LC-MS/MS, MiST analysis

Chain of TOX (Q66JW3 whole entry): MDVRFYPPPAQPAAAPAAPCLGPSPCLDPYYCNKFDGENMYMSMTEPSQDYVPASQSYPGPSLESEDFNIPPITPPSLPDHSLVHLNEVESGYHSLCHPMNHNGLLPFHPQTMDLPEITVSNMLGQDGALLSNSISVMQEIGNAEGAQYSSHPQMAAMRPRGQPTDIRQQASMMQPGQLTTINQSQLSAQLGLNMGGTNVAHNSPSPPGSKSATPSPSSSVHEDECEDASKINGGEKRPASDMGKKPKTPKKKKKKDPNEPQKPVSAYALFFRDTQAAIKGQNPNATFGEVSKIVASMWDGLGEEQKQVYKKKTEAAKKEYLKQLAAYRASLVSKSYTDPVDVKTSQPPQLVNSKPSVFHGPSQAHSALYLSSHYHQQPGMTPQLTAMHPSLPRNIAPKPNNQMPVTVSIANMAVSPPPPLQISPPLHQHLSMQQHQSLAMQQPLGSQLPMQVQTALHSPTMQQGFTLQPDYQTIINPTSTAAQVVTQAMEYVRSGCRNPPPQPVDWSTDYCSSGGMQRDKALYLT

Substance	Abundance (TOX [1])	MiST Score (TOX [1])	Reproducibility (TOX [1])	Specificity (TOX [1])	Abundance (TOX [2])	MiST Score (TOX [2])	Reproducibility (TOX [2])	Specificity (TOX [2])
Ap3m1 (from UniProt Q9JKC8 1-418)	1.64e-05	0.829	0.982	0.767				
Arhgef2 (from UniProt Q60875 1-985)	1.33e-05	0.847	0.943	0.811				
Atxn2 (from UniProt O70305 1-1285)	2.51e-06	0.831	0.831	0.838				
Ccnk (from UniProt O88874 1-554)	1.18e-05	0.846	0.975	0.795				
Cdc16 (from UniProt Q8R349 1-620)	4.84e-06	0.847	0.524	1				
Cnot1 (from UniProt Q6ZQ08 1-2375)	5.57e-07	0.85	0.931	0.821				
Copg1 (from UniProt Q9QZE5 1-874)	3.36e-06	0.844	0.514	1				
Cpt1a (from UniProt P97742 2-773)	7.71e-07	0.847	0.522	1				
Csrp1 (from UniProt P97315 1-193)	5.52e-05	0.828	0.966	0.773				
Ddx23	7.9e-06	0.836	0.837	0.843				
Dhx29 (from UniProt Q6PGC1 1-1365)	5.88e-07	0.847	0.928	0.818				
Dnajb6 (from UniProt O54946 1-365)	2.48e-05	0.837	0.944	0.796				
Dnajb11 (from UniProt Q99KV1 23-358)	2.91e-05	0.839	0.783	0.872				
Gm20517; Med20 (from UniProt Q9R0X0 1-212)	2.2e-05	0.831	0.472	1				
Gnl2 (from UniProt Q99LH1 1-728)	7.98e-06	0.843	0.894	0.827				
Hsd17b10 (from UniProt O08756 2-261)	1.27e-05	0.857	0.557	1				
Lsg1 (from UniProt Q3UM18 1-644)	2.9e-06	0.837	0.886	0.822				
Mark2 (from UniProt Q05512 1-776)	2.81e-06	0.842	0.891	0.826				
Mcm5 (from UniProt P49718 2-734)	4.18e-06	0.85	0.757	0.9				
Mrpl3 (from UniProt Q99N95 41-348)	7.04e-05	0.857	0.555	1				
Nob1 (from UniProt Q8BW10 1-403)	2.4e-05	0.84	0.955	0.796				
Nop2 (from UniProt Q922K7 1-793)	8.3e-05	0.844	0.981	0.789				
Nop14 (from UniProt Q8R3N1 1-860)	1.27e-06	0.84	0.501	1				

Substance	Abundance (TOX [1])	MiST Score (TOX [1])	Reproducibility (TOX [1])	Specificity (TOX [1])	Abundance (TOX [2])	MiST Score (TOX [2])	Reproducibility (TOX [2])	Specificity (TOX [2])
Nsf (from UniProt P46460 1-744)	2.87e-06	0.838	0.808	0.859				
Orc1 (from UniProt Q9Z1N2 1-840)	1.58e-06	0.843	0.866	0.839				
Racgap1 (from UniProt Q9WVM1 1-628)					8.29e-06	0.793	0.868	0.765
Rbm15 (from UniProt Q0VBL3 1-962)					8.04e-06	0.776	0.987	0.687
Rcc1 (from UniProt Q8VE37 2-421)					2.79e-05	0.796	0.986	0.717
Rcc2 (from UniProt Q8BK67 1-520)					3.74e-05	0.79	0.958	0.722
Sin3a (from UniProt Q60520 1-1274)					5.49e-06	0.773	0.284	1
Slc25a3 (from UniProt Q8VEM8 46-357)					6.71e-05	0.778	0.975	0.696
Slc25a4 (from UniProt P48962 2-298)					0.000186	0.765	0.959	0.684
Slc25a11 (from UniProt Q9CR62 2-314)					2.29e-05	0.788	0.956	0.72
Smarca4 (from UniProt Q3TKT4 1-1613) (enzyme)					6.52e-07	0.786	0.594	0.879
Srp72					3.55e-05	0.765	0.872	0.723
Srrm2 (from UniProt Q8BTI8 1-2703)					1.1e-06	0.769	0.861	0.734
Tcof1 (from UniProt O08784 1-1320)					0.000142	0.77	0.984	0.681
Terf2 (from UniProt O35144 1-541)					6.86e-06	0.79	0.994	0.705
Thoc1 (from UniProt Q8R3N6 1-657)					9.29e-06	0.775	0.999	0.681
Umps (from UniProt P13439 1-481) (enzyme)					2.41e-06	0.766	0.792	0.761
Usp10 (from UniProt P52479 2-792) (enzyme)					3.26e-06	0.793	0.613	0.881
Wdr36					3.46e-06	0.785	0.886	0.747
Xrcc5 (from UniProt P27641 1-732)					2.92e-05	0.775	0.737	0.799
Xrn2 (from UniProt Q9DBR1 1-951) (enzyme)					8.55e-06	0.787	0.804	0.787
Ywhah (from UniProt P68510 2-246)					6.28e-05	0.774	0.819	0.761
Zw10 (from UniProt O54692 2-779)					2.83e-06	0.767	0.582	0.857
